Several values for one entry are separate records, joined by “and”; a condition that tells them apart may be missing. Identical values can stand only once. Like-named read-outs stand apart in the source and are kept apart here.
Key:
[1] = molecular target: recombinant human Ep-CAM/Fc (R&D Systems) (human) (UniProt P16422); assay: SPR
[2] = molecular target: recombinant human Ep-CAM/Fc (R&D Systems) (human) (UniProt P16422); assay: SPR; remark: listed apart in the source
[3] = molecular target: extracellular domain of Ep-CAM (DIGylated) (UniProt P16422); assay: antigen binding
Chain of extracellular domain of Ep-CAM (DIGylated) (P16422 24-265): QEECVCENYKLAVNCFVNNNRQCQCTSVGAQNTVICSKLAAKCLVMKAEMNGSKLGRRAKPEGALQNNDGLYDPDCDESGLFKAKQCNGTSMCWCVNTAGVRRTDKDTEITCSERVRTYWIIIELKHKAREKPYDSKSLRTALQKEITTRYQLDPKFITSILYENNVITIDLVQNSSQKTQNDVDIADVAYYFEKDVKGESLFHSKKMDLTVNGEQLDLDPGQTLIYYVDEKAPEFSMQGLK

[4] = molecular target: FcgRI; assay: SPR

Chain of recombinant human Ep-CAM/Fc (R&D Systems) (human) (P16422 24-265): as above

| Kd [1] | Kd [2] | EC50 [3] | Kd [4] | Substance |
| --- | --- | --- | --- | --- |
| 159 nM | 158 nM | 1.9E-07 ? and 2.5E-07 ? |  | Wild-type IgG1 Ep-CAM antibody (17-1A H0L0 variable regions, chimeric human IgG1) |
|  |  |  | 1.37 nM | H3.77_L3 S239D IgG1 (from UniProt P01857 1-330) |

— US20070122406A1
